These are literature values, as cited in paper PMC10561060.

The target in the series is chemoreceptor C-terminal pentapeptide (Escherichia coli). The series can be described thus: ITC.

What is called Kd is the concentration at which binding is half-saturated. On to CheB (from UniProt P07330), for which the Kd was 160 µM. CheR (from UniProt P07364): the Kd is 2 µM.
